Measurements taken from article PMC11760809.

What was measured:
CXCR4-Rluc3 (human) = CXCR4-Rluc3 (human) (UniProt P61073)
SNAP-ACKR3 (human) [1] = biological target: SNAP-ACKR3 (human) (UniProt P25106)
ACKR3-Rluc3 (human) [2] = biological target: ACKR3-Rluc3 (human) (UniProt P25106)
SNAP-ACKR3 (human) [3] = biological target: SNAP-ACKR3 (human) (UniProt P25106); remark: listed apart in the source
ACKR3-Rluc3 (human) [4] = biological target: ACKR3-Rluc3 (human) (UniProt P25106); remark: listed apart in the source

Chain of UniProt P61073 (P61073 whole entry): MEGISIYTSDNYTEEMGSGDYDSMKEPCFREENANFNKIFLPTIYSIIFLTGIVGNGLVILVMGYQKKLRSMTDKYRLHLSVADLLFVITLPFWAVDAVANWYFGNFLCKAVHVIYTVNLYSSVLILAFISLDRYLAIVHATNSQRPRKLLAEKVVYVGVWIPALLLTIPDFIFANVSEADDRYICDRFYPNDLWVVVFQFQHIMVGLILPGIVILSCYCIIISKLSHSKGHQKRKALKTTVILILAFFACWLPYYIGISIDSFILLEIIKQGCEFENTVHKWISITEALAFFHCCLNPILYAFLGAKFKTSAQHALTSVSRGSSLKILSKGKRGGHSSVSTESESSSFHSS

reduction of the efficacy (Emax) of CXCL12-induced β-arrestin recruitment to CXCR4 by RAMP3 (BRET) (CXCR4-Rluc3 (human)): 18.5%
attenuation of the purely ligand-induced (CXCL12) internalization of ACKR3 by RAMP3 (DERET) (SNAP-ACKR3 (human) [1]): 50%
reduction of total ACKR3 internalization in response to CXCL12 (100 nM) on co-expression of HA-RAMP3, compared to ACKR3 alone (DERET, AUC 90 min) (SNAP-ACKR3 (human) [1]): 25%
decrease of the CXCL12-induced Emax of β-arrestin recruitment to ACKR3 on co-expression with RAMP3 (BRET) (ACKR3-Rluc3 (human) [2]): 40%
ACKR3 remaining at the surface after CXCL12-induced internalization when HA-RAMP3 was present (∼53% without it; SNAP surface labelling) (SNAP-ACKR3 (human) [3]): 65%
decrease of the efficacy of CXCL11-induced β-arrestin recruitment to ACKR3 with HA-RAMP3 (BRET) (ACKR3-Rluc3 (human) [4]): 47%
decrease of the efficacy of TC14012-induced β-arrestin recruitment to ACKR3 with HA-RAMP3 (BRET) (ACKR3-Rluc3 (human) [4]): 39%
decrease of the efficacy of VUF11207-induced β-arrestin recruitment to ACKR3 with HA-RAMP3 (BRET) (ACKR3-Rluc3 (human) [4]): 30%
B1: 3xHA-RAMP3 (natural protein)
chain: RAGGCNETGMLERLPLCGKAFADMMGKVDVWKWCNLSEFIVYYESFTNCTEMEANVVGCYWPNPLAQGFITGIHRQFFSNCTVDRVHLEDPPDEVLIPLIVIPVVLTVAMAGLVVWRSKRTDTLL
